Experiment [1] addresses T1, recombinant human CD3 epsilon/delta heterodimer (human, UniProt P07766 23-126; P04234 22-105).
T1 construct: Recombinant protein in solution (200-50 nM) in the Octet assay; also called hCD3 E/D; human CD3E/D
Description: Octet BLI, mAb on FAB2G sensor, hCD3 E/D 200-50 nM; R^2 0.96.
Description: Samples were evaluated by flow cytometry analysis against Jurkat and human Pan-T cells (FIG. 1B) as well as by Octet against recombinant human CD3 proteins to evaluate apparent affinities and binding off-rates (Table 6, infra).

In experiment [2] the target is T2, recombinant human CD3 epsilon/gamma heterodimer (human, UniProt P07766 23-126; P09693 23-116).
T2 construct: Recombinant protein in solution (200-50 nM) in the Octet assay; also called hCD3 E/G
T2 sequence (P07766 23-126, chain 1 of 2): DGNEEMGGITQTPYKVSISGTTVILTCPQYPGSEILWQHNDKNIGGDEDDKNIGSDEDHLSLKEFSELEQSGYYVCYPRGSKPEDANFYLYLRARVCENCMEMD
T2 sequence (P09693 23-116, chain 2 of 2): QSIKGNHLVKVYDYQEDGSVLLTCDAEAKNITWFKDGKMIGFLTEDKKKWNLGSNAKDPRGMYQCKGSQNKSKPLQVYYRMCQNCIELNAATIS
Description: Octet BLI, mAb on FAB2G sensor, hCD3 E/G 200-50 nM; R^2 0.34.

Experiment [3] deals with T3, recombinant CD3 proteins (UniProt P07766 23-126).
T3 construct: elsewhere it uses human CD3 E/D and E/G heterodimers
T3 sequence (P07766 23-126): as the sequence (P07766 23-126, chain 1 of 2) above
Put plainly: Octet BLI, recombinant CD3; Full R^2 0.9554.

In experiment [4] the target is T3, recombinant CD3 proteins. Description: Octet BLI, recombinant CD3; Full R^2 0.986.
Experiment [5] has as its target T3, recombinant CD3 proteins. Description: Octet BLI, recombinant CD3; Full R^2 0.603*.
The target in experiment [6] is T3, recombinant CD3 proteins. Put plainly: Octet BLI, recombinant CD3; Full R^2 0.990.
The target in experiment [7] is T3, recombinant CD3 proteins. Description: Octet BLI, recombinant CD3; Full R^2 0.989.
The target in experiment [8] is T3, recombinant CD3 proteins. Put plainly: Octet BLI, recombinant CD3; Full R^2 0.974.
Experiment [9] deals with T3, recombinant CD3 proteins. Put plainly: Octet BLI, recombinant CD3; Full R^2 0.984.

T1 sequence (P07766 23-126, stated change not applied, chain 1 of 2): as the sequence (P07766 23-126, chain 1 of 2) above
T1 sequence (P04234 22-105, stated change not applied, chain 2 of 2): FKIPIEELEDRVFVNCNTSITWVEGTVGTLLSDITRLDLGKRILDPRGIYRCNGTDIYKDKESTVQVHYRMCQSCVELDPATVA

B1: ABL-CD3-13 (antibody, V domains shown)
VH: EVQLVESGGGLVQPGGSLRLSCAASGFTFSNYWMSWVRQAPGKGLEWVANIKEDGSEKYYVDSVKGRFTISRDNAKNSLYLQMNSLTAEDTSVYYCARERRTGYFDYWGQGTLVTVSS
VL: DIQMTQSPSTLSASVGDRVTITCRASQSISNWLAWYQQKPGKAPNLLIYKASSLESGVPSRFSGSGSGTEFTLTISSLQPDDFANYYCQQYKSYSWTFGQGTKVEIK
notes: Chimeric hybridoma mAb: human V, CH1, upper hinge; mouse middle hinge, CH2, CH3
On to B1, for which, in [1], the Kd amounted to 23.4 nM, the Response stood at 0.08, the off-rate constant (koff) worked out at 0.000728 s⁻¹ and the kon is 31200 M⁻¹ s⁻¹. In [2], the Kd was less than 0.001 nM, the koff is less than 1e-07 s⁻¹ and the association rate constant (kon) worked out at 26700 M⁻¹ s⁻¹.

B2: CD3 × CD33-BspAb98 (bispecific antibody)
chain 1: NFMLTQPHSVSESPGKTVTISCTRSSGSIASNYVQWYQQRPGSSPTTVIYEDNQRPSGVPDRFSGSIDSSSNSASLTISGLKTEDEADYYCQSYDSSNRVFGCGTKLTVLGGGGSGGGGSGGGGSGGGGSEVHLVESGGGLVKPGGSLRLSCAASGFTFSRYSMNWVRQAPGKCLEWVSSISRSSSYIYYADSVKGRFTISRDNAKNSLYLQMNSLRAEDTAVYYCAREPRTLGMDYWGQGILVTVSSDKTHTCPPCPAPEFEGGPSVFLFPPKPKDTLMISRTPEVTCVVVDVSHEDPEVKFNWYVDGVEVHNAKTKPREEQYNSTYRVVSVLTVLHQDWLNGKEYKCKVSNKALPASIEKTISKAKGQPREPQVYTLPPCREEMTKNQVSLWCLVKGFYPSDIAVEWESNGQPENNYKTTPPVLDSDGSFFLYSKLTVDKSRWQQGNVFSCSVMHEALHNHYTQKSLSLSPGK
chain 2: EVQLVQSGAEVKKPGSSVKVSCKASGYTITDSNIHWVRQAPGQSLEWIGYIYPYNGGTDYNQKFKNRATLTVDNPTNTAYMELSSLRSEDTAFYYCVNGNPWLAYWGQGTLVTVSSASTKGPSVFPLAPSSKSTSGGTAALGCLVKDYFPEPVTVSWNSGALTSGVHTFPAVLQSSGLYSLSSVVTVPSSSLGTQTYICNVNHKPSNTKVDKRVEPKSCDKTHTCPPCPAPEFEGGPSVFLFPPKPKDTLMISRTPEVTCVVVDVSHEDPEVKFNWYVDGVEVHNAKTKPREEQYNSTYRVVSVLTVLHQDWLNGKEYKCKVSNKALPASIEKTISKAKGQPREPQVCTLPPSREEMTKNQVSLSCAVKGFYPSDIAVEWESNGQPENNYKTTPPVLDSDGSFFLVSKLTVDKSRWQQGNVFSCSVMHEALHNRFTQKSLSLSPGK
chain 3: DIQLTQSPSTLSASVGDRVTITCRASESLDNYGIRFLTWFQQKPGKAPKLLMYAASNQGSGVPSRFSGSGSGTEFTLTISSLQPDDFATYYCQQTKEVPWSFGQGTKVEVKRTVAAPSVFIFPPSDEQLKSGTASVVCLLNNFYPREAKVQWKVDNALQSGNSQESVTEQDSKDSTYSLSSTLTLSKADYEKHKVYACEVTHQGLSSPVTKSFNRGEC
On to B2, for which, in experiment [3], the dissociation constant Kd is 5.1 nM, the off-rate (koff) is 0.00333 s⁻¹ and the kon stood at 653000 M⁻¹ s⁻¹.

B3: CD3 × CD33-BspAb119 (bispecific antibody)
chain 1: NFMLTQPHSVSESPGKTVTISCTRSSGSIASNYVQWYQQRPGSSPTTVIYEDNQRPSGVPDRFSGSIDSSSNSASLTISGLKTEDEADYYCQSYDSSNRVFGCGTKLTVLGGGGSGGGGSGGGGSGGGGSEVQVAESGGGLVKPGGSLRLSCAASGFTFSRYSMNWVRQAPGKCLEWVSSISSSGSYTYYADSVKGRFTISRDNAKNSLYLQMNSLRAEDTAVYYCVRERGKGAGMDVWGQGTTVTVSSDKTHTCPPCPAPEFEGGPSVFLFPPKPKDTLMISRTPEVTCVVVDVSHEDPEVKFNWYVDGVEVHNAKTKPREEQYNSTYRVVSVLTVLHQDWLNGKEYKCKVSNKALPASIEKTISKAKGQPREPQVYTLPPCREEMTKNQVSLWCLVKGFYPSDIAVEWESNGQPENNYKTTPPVLDSDGSFFLYSKLTVDKSRWQQGNVFSCSVMHEALHNHYTQKSLSLSPGK
chain 2: B2 chain 2
chain 3: B2 chain 3
Turning to B3, in [4], the Kd amounted to 21.7 nM, the koff is 0.00688 s⁻¹ and the kon was 317000 M⁻¹ s⁻¹.

B4: CD3 × CD33-BspAb99 (bispecific antibody)
chain 1: not shown
chain 2: B2 chain 2
chain 3: B2 chain 3
As for B4, in experiment [5], the Kd amounted to 30.7 nM, the koff was 0.00421 s⁻¹ and the on-rate constant (kon) is 137000 M⁻¹ s⁻¹.

B5: CD3 × CD33-BspAb115 (bispecific antibody)
chain 1: NFMLTQPHSVSESPGKTVTISCTRTSGSIASNYVQWYQQRPGSSPTTVIYEDNQRPSGVPDRFSGSIDSSSNSASLTISGLKTEDEAAYYCQSYDRSNRVFGCGTKLTVLGGGGSGGGGSGGGGSGGGGSQVQLQESGPGLVKPSETLSLTCTVSGGSISSYYWSWIRQPAGKCLEWIGRIYTSGSTKYNPSLKSRVTMSVDTSKNQFSLKLISVTAADTAVYFCARERIRDLYFDYWGQGTLVTVSSDKTHTCPPCPAPEFEGGPSVFLFPPKPKDTLMISRTPEVTCVVVDVSHEDPEVKFNWYVDGVEVHNAKTKPREEQYNSTYRVVSVLTVLHQDWLNGKEYKCKVSNKALPASIEKTISKAKGQPREPQVYTLPPCREEMTKNQVSLWCLVKGFYPSDIAVEWESNGQPENNYKTTPPVLDSDGSFFLYSKLTVDKSRWQQGNVFSCSVMHEALHNHYTQKSLSLSPGK
chain 2: B2 chain 2
chain 3: B2 chain 3
B5: in experiment [6], the Kd turned out to be 16.2 nM, the koff turned out to be 0.00402 s⁻¹ and the kon was found to be 249000 M⁻¹ s⁻¹.

B6: CD3 × CD33-BspAb118 (bispecific antibody)
chain 1: FMLTQPHSVSESPGKTVTISCTRSSGSIASNYVQWYQQRPGSSPTTVIYEDNQRPSGVPDRFSGSIDSSSNSASLTISGLQTEDEADYYCQSYDSSNRVFGCGTKLTVLGGGGSGGGGSGGGGSGGGGSEVQLVESGGGLVKPGGSLRLSCVASGFTFSRYSMNWVRQAPGKCLEWVSSISSSSRYTYYADSLKGRFIMSRDNAKNSLFLQMNSLRAEDTAVYYCARNLYNALDYWGQGTLVTVSSDKTHTCPPCPAPEFEGGPSVFLFPPKPKDTLMISRTPEVTCVVVDVSHEDPEVKFNWYVDGVEVHNAKTKPREEQYNSTYRVVSVLTVLHQDWLNGKEYKCKVSNKALPASIEKTISKAKGQPREPQVYTLPPCREEMTKNQVSLWCLVKGFYPSDIAVEWESNGQPENNYKTTPPVLDSDGSFFLYSKLTVDKSRWQQGNVFSCSVMHEALHNHYTQKSLSLSPGK
chain 2: B2 chain 2
chain 3: B2 chain 3
Turning to B6, in [7], the Kd worked out at 1.91 nM, the koff is 0.000767 s⁻¹ and the kon is 403000 M⁻¹ s⁻¹.

B7: CD3 × CD33-BspAb100 (bispecific antibody)
chain 1: EVQLVESGGGLVKPGGSLRLSCAASGFTFSNYYMNWVRQAPGKCLERVSSISSSSNYIYYADSVKGRFTISRDNAKNSLYLQMNSLRAEDTAVYYCARDRRELPLDYWGQGTVVTVSSGGGGSGGGGSGGGGSGGGGSSYELTQPPSVSVSPGQTARITCSGDALPKKYAYWYQQKSGQAPVLVIYEDSKRPSGIPERFSGSSSGTMATLTISGAQVEDEADYYCYSTDSSGNHWVFGCGTKLTVLDKTHTCPPCPAPEFEGGPSVFLFPPKPKDTLMISRTPEVTCVVVDVSHEDPEVKFNWYVDGVEVHNAKTKPREEQYNSTYRVVSVLTVLHQDWLNGKEYKCKVSNKALPASIEKTISKAKGQPREPQVYTLPPCREEMTKNQVSLWCLVKGFYPSDIAVEWESNGQPENNYKTTPPVLDSDGSFFLYSKLTVDKSRWQQGNVFSCSVMHEALHNHYTQKSLSLSPGK
chain 2: B2 chain 2
chain 3: B2 chain 3
For the molecule B7, in [8], the Kd came to 235 nM, the koff turned out to be 0.0831 s⁻¹ and the on-rate constant (kon) is 354000 M⁻¹ s⁻¹.

B8: CD3 × CD33-BspAb117 (bispecific antibody)
chain 1: NFMLTQPHSVSESPGKTVTISCTRSSGSIASNYVQWYQQRPGSSPTSVIYEDNQRPSGVPDRFSGSIDSSSNSASLTISGLKTEDEADYYCQSYDRSNRVFGCGTKLTVLGGGGSGGGGSGGGGSGGGGSEVQLVESGGGLVKPGGSLRLSCAASGLTFSTYSMNWVRQAPGKCLEWVSSISSSGSYVYYADSVKGRFTMSRDNAKNSLYLQMNSLRAEDTAVYYCARERRELLFDYWGQGTLVTVSSDKTHTCPPCPAPEFEGGPSVFLFPPKPKDTLMISRTPEVTCVVVDVSHEDPEVKFNWYVDGVEVHNAKTKPREEQYNSTYRVVSVLTVLHQDWLNGKEYKCKVSNKALPASIEKTISKAKGQPREPQVYTLPPCREEMTKNQVSLWCLVKGFYPSDIAVEWESNGQPENNYKTTPPVLDSDGSFFLYSKLTVDKSRWQQGNVFSCSVMHEALHNHYTQKSLSLSPGK
chain 2: B2 chain 2
chain 3: B2 chain 3
For the molecule B8, in experiment [9], the Kd was 16.6 nM, the koff worked out at 0.00554 s⁻¹ and the kon was 335000 M⁻¹ s⁻¹.
